Common to all, as to assay: fluorescence polarisation
On the technique in general: Fluorescence polarisation rises when a labelled molecule tumbles more slowly, as on binding a larger partner.

The target in assay [1] is FITC-labeled MBOAT1 probe peptide FITC-… (human).
Assay [2] has as its target FITC-labeled PRDM14 probe peptide FITC-… (human).
Assay [3] has as its target FITC-labeled NCOA2 probe peptide FITC-… (human).
Assay [4] addresses FITC-labeled NKRF probe peptide FITC-….
Assay [5] addresses SARS‐CoV‐2 NSP3 UBl1 domain (819–925), tag cleaved, for FP (SARS-CoV-2) (UniProt P0DTD1).
The target in assay [6] is SARS‐CoV‐2 NSP9 (4141–4253), tag cleaved, for FP (SARS-CoV-2) (UniProt P0DTD1).
The target in assay [7] is SARS‐CoV‐2 NSP3 SUD‐M domain (1356–1493), tag cleaved, for FP (SARS-CoV-2) (UniProt P0DTD1).

As usually defined, the Kd is the concentration at which binding is half-saturated. Read a low Kd as a tighter complex.

“SARS-CoV-2 NSP3 ADRP domain (domain or fragment)” displayed a Kd in assay [1] of 51 µM. In other words, the double-digit micromolar range.
Take “SARS-CoV-2 NSP3 SUD-M domain (domain or fragment)”: the Kd in assay [2] was 23 µM.
In assay [3], “SARS-CoV-2 NSP3 UBl1 domain (domain or fragment)” displayed a Kd of 67 µM.
With “SARS-CoV-2 non-structural protein 9 (NSP9) (natural protein)”, the Kd in assay [4] was determined as 15.5 µM.
“wild‐type NCOA2_(1073–1088) peptide (from UniProt Q15596 1073-1088)” registered a Kd in assay [5] of 39 µM. That is a double-digit micromolar value.
In turn, wild‐type NOTCH4 peptide (synthetic) displayed a Kd in assay [6] of 72 µM.
In the case of wild‐type PRDM14 peptide (synthetic), in assay [7], the Kd was 74 µM. This counts as double-digit micromolar.
